Assay results: patent US20210047394A1 (Hoffmann-La Roche, published 2021)
Residue numbers refer to the chain shown, from its start.

Assays:
[1] = target: T1, Angiopoietin-1-His (R&D systems #923-AN) (human, UniProt Q15389 20-498, limits assumed); experiment: ANG-1 binding ELISA, coated ANG-1
T1 construct: also called human ANG-1; hANG-1; not shown: His tag
T1 sequence: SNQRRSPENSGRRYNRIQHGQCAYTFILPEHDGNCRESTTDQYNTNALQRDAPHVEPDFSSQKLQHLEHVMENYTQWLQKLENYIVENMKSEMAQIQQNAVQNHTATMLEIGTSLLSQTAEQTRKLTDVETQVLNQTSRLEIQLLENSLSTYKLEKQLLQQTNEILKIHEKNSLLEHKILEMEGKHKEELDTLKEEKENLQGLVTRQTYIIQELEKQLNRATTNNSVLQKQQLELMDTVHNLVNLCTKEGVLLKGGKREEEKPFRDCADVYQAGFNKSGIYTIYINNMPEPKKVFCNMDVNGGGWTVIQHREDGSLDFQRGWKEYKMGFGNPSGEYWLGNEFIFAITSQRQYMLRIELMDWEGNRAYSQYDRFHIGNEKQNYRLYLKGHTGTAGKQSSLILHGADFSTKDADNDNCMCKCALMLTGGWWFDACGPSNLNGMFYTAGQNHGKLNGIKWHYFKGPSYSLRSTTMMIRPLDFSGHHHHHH

[2] = target: T2, full-length Angiopoietin-2-His protein (R&D Systems #623-AN/CF or in house produced material) (human, UniProt O15123 19-496, limits assumed); experiment: ANG-2 binding ELISA, coated ANG-2
T2 construct: also called human ANG-2; ANG-2-His; not shown: His tag
T2 sequence: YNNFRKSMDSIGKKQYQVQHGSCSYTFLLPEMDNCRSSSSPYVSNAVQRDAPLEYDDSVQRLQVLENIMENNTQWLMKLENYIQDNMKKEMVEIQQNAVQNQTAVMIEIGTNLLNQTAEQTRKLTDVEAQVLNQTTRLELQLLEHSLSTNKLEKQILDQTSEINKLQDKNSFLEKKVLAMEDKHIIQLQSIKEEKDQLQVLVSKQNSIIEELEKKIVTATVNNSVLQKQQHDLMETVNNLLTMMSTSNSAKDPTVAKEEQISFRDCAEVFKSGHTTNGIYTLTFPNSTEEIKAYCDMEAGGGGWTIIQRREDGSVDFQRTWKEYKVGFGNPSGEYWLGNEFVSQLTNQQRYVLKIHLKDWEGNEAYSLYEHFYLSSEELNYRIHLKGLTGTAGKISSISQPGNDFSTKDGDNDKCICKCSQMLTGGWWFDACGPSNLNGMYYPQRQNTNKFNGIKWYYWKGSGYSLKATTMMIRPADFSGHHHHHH

[3] = target: T3, rhVEGF (R&D Systems Cat. No. 293-VE) (human, UniProt P15692 181-395); experiment: SPR (Biacore), hVEGF affinity
T3 construct: Analyte in the Biacore assays; also called VEGF-A
T3 sequence (P15692 other isoform, or with tags, fused parts or gaps limits assumed): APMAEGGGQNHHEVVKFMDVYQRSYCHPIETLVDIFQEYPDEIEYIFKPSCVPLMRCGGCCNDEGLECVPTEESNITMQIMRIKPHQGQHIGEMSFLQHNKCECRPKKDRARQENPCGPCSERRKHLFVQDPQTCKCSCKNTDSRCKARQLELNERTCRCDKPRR

[4] = target: T2, full-length Angiopoietin-2-His protein …; experiment: cell-based or functional assay
[5] = target: T2, full-length Angiopoietin-2-His protein …; experiment: SPR (Biacore), antibody captured by secondary antibody, ANG-2 analyte; KD only a relative estimation
[6] = target: T3, rhVEGF (R&D Systems Cat. No. 293-VE); experiment: SPR (Biacore T100), antibody captured via anti-human IgG, rhVEGF analyte, 37 C
[7] = target: T3, rhVEGF (R&D Systems Cat. No. 293-VE); experiment: SPR (Biacore), antibody on captured Ang-2, then rhVEGF
[8] = target: T2, full-length Angiopoietin-2-His protein …; experiment: SPR (Biacore T100), antibody captured via anti-hIgG-Fc, ANG-2-His analyte, 25 C; relative estimation
[9] = target: T4, full-length VEGF165-His protein (R&D Systems) (human, UniProt P15692 181-395); experiment: VEGF binding ELISA, coated VEGF165
T4 construct: also called recombinant human VEGF165; VEGF-A; not shown: His tag
T4 sequence (P15692 other isoform, or with tags, fused parts or gaps): as the sequence (P15692 other isoform, or with tags, fused parts or gaps limits assumed) above

[10] = target: T2, full-length Angiopoietin-2-His protein …; experiment: inhibition of huANG-2 binding to coated Tie-2 (ELISA)

B1: <ANG-2>Ang2i_LC07 (antibody, V domains shown)
VH: not shown
VL: QPVLTQSPSVSVAPGETARVACGGNFIGGKSVHWYQQKPGQAPVLVIYDDSERPSGIPERISGSNSGNTATLIITRAEAGDEADYHCQVWDSDSDQGVFGTGTKLTVLG
notes: Parent monospecific antibody
EC50 [1]: > 8 µg/mL | EC50 [2]: 3.01 µg/mL

B2: Bevacizumab-LC06-VH-VL (bispecific antibody, human IgG1, kappa)
heavy 1: not shown
heavy 2: not shown
light 1: QPGLTQPPSVSVAPGQTARITCGGNNIGSKSVHWYQQKPGQAPVLVVYDDSDRPSGIPERFSGSNSGNTATLTISRVEAGDEADYYCQVWDSSSDHYVFGTGTKVTVLRTVAAPSVFIFPPSDEQLKSGTASVVCLLNNFYPREAKVQWKVDNALQSGNSQESVTEQDSKDSTYSLSSTLTLSKADYEKHKVYACEVTHQGLSSPVTKSFNRGEC
light 2: EVQLVESGGGLVQPGGSLRLSCAASGYTFTNYGMNWVRQAPGKGLEWVGWINTYTGEPTYAADFKRRFTFSLDTSKSTAYLQMNSLRAEDTAVYYCAKYPHYYGSSHWYFDVWGQGTLVTVSSASVAAPSVFIFPPSDEQLKSGTASVVCLLNNFYPREAKVQWKVDNALQSGNSQESVTEQDSKDSTYSLSSTLTLSKADYEKHKVYACEVTHQGLSSPVTKSFNRGEC
notes: Bispecific, bivalent domain exchanged antibody (VH-VL exchange); also called Bevacizumab-LC06-CM-VH-VL
Kd [3]: 0.1 nM

B3: Bevacizumab-LC06-VH-VL-SS (bispecific antibody, human IgG1, kappa)
heavy 1: not shown
heavy 2: not shown
light 1: B2 light 1 with T101C
light 2: B2 light 2
notes: Bispecific, bivalent domain exchanged antibody (VH-VL exchange and an additional VH44 VL100 disulfide bridge)
Kd [3]: 0.1 nM

B4: <ANG-2> Ang2k_LC08 (antibody, V domains shown)
VH: QVQLVESGGGVVQPGGSLRLSCAASGFTFSSYGMHWVRQAPGKGLEWVAVISYDGSNKYYADSVKGRFTISRDNSKNTLYLQMNSLRAEDTAVYYCAKPTLDIYMGYYYGMDVWGQGTTVTVSS
VL: QPVLTQPPSASGAPGQRVTISCSGFASNIGSNSVNWYQQVPGTAPKLLIYNNDQRPSGVPDRFSGSRSGTSASLAISGLQSEDEADYYCAAWDDSLNGPVFGGGTKLTVLG
notes: Parent monospecific antibody; also called <ANG-2>Ang2i-LC08
EC50 [1]: 4.04 µg/mL | IC50, ANGPT2 stimulated Tie2 phosphorylation (HEK293-Tie2 cells), first experiment [4]: ~0.499 µg/mL | IC50, ANGPT2 stimulated Tie2 phosphorylation (HEK293-Tie2 cells), second experiment [4]: ~0.399 µg/mL | EC50 [2]: 0.105 µg/mL

B5: disulfide-stabilized <VEGF-ANG-2> TvAb6 (bispecific antibody, IgG1)
heavy (part 1 of 2): EVQLVESGGGLVQPGGSLRLSCAASGFTISDYWIHWVRQAPGKGLEWVAGITPAGGYTYYADSVKGRFTISADTSKNTAYLQMNSLRAEDTAVYYCARFVFFLPYAMDYWGQGTLVTVSS
heavy (part 2 of 2): not shown
light: DIQMTQSPSSLSASVGDRVTITCRASQDVSTAVAWYQQKPGKAPKLLIYSASFLYSGVPSRFSGSGSGTDFTLTISSLQPEDFATYYCQQGYGNPFTFGQGTKVEIK
notes: Tetravalent: full-length IgG1 G6-31 with a VH44/VL100 disulfide-stabilized Mab536 scFv at the C-terminus of each heavy chain; also called TvAb6 (2331); No. 2331; not shown: IgG1 heavy chain constant region; light chain constant region
Kd [5]: 4.4 nM | Kd [6]: 0.00153 nM | koff [6]: 7.24e-06 s⁻¹ | kon [6]: 4.72e+06 M⁻¹ s⁻¹ | t1/2 [6]: 26.6 h

B6: <ANG-2>Ang2i_LC06 (antibody, V domains shown)
VH: not shown
VL: QPGLTQPPSVSVAPGQTARITCGGNNIGSKSVHWYQQKPGQAPVLVVYDDSDRPSGIPERFSGSNSGNTATLTISRVEAGDEADYYCQVWDSSSDHYVFGTGTKVTVLG
notes: Parent monospecific antibody
EC50 [1]: > 8 µg/mL | IC50, ANGPT2 stimulated Tie2 phosphorylation (HEK293-Tie2 cells), first experiment [4]: ~0.508 µg/mL | IC50, ANGPT2 stimulated Tie2 phosphorylation (HEK293-Tie2 cells), second experiment [4]: ~0.424 µg/mL | EC50 [2]: 0.084 µg/mL

B7: <ANG-2> Mab536 (antibody, V domains shown)
VH: EVQLVQSGGGVVQPGRSLRLSCAASGFTFSSYGMHWVRQAPGKGLEWVSYISSSGSTIYYADSVKGRFTISRDNAKNSLYLQMNSLRAEDTAVYYCARDLLDYDILTGYGYWGQGTLVTVSS
VL: not shown
notes: monospecific 'standard' IgG1 antibody; also called Mab536 (1000)
binding result [7]: no binding (tested: 150 nM VEGF) | Kd [5]: 1.6 nM | EC50 [1]: 2.54 µg/mL | Kd [8]: 3 nM | binding result [9]: no binding | IC50 [10]: 0.015 µg/mL | EC50 [2]: 0.133 µg/mL
